In patent US20240052047A1 (Pfizer, published 2024):

Target: human IL27 receptor (IL27RA/gp130 heterodimer) on human cells (human, UniProt Q6UWB1 33-636; P40189 23-918)
Test: cell-based or functional assay

- Monocyte IDO1 EC50 (human PBMC, CD14+ monocytes, flow cytometry): 5 pM
- Monocyte PD-L1 EC50 (human whole blood, flow cytometry): 2 pM
- Primary Colonocytes IDO1 activity EC50 (kynurenine by LC-MS): 5400 pM
- T Cell pSTAT1 EC50 (human whole blood, CD3+ T cells, flow cytometry): 0.4 nM
- T Cell pSTAT3 EC50 (human whole blood, CD3+ T cells, flow cytometry): 0.2 nM
B1: mAb-4894 anti-IL27RA/gp130 bispecific antibody (bispecific antibody, human IgG1)
heavy 1: EVQLVESGGGLVQPGGSLRLSCAASGFTFEYFGLQWVRQAPGKGLEWIGYTSSGGNYEYYEETLKGRFTISRDNAKNSLYLQMNSLRAEDTAVYYCARTKTGDYWGQGTLVTVSSASTKGPSVFPLAPSSKSTSGGTAALGCLVKDYFPEPVTVSWNSGALTSGVHTFPAVLQSSGLYSLSSVVTVPSSSLGTQTYICNVNHKPSNTKVDKKVEPKSCEKTHTCPPCPAPEAAGAPSVFLFPPKPKDTLMISRTPEVTCVVVDVSHEDPEVKFNWYVDGVEVHNAKTKPREEQYNSTYRVVSVLTVLHQDWLNGKEYKCKVSNKALPAPIEKTISKAKGQPREPQVYTLPPSREEMTKNQVSLTCEVKGFYPSDIAVEWESNGQPENNYKTTPPVLDSDGSFFLYSKLTVDKSRWQQGNVFSCSVMHEALHNHYTQKSLSLSPGK
light 1: DIQMTQSPSSLSASVGDRVTITCRASQDIGNSLTWYQQKPGKAPKRVIFGATGLAAGVPSRFSGSGSGTDFTLTISSLQPEDFATYYCLQSKQYPYTFGQGTKLEIKRTVAAPSVFIFPPSDEQLKSGTASVVCLLNNFYPREAKVQWKVDNALQSGNSQESVTEQDSKDSTYSLSSTLTLSKADYEKHKVYACEVTHQGLSSPVTKSFNRGEC
heavy 2: QVQLVQSGAEVKKPGSSVKVSCKVSGGSISSYYWSWVRQAPGQGLEWIGRIYITGNTNYNPSLKDRVTMTVDTSTSTHYMELSSLRSEDTAVYYCAREGPKLGIFDYWGQGTLVTVSSASTKGPSVFPLAPSSKSTSGGTAALGCLVKDYFPEPVTVSWNSGALTSGVHTFPAVLQSSGLYSLSSVVTVPSSSLGTQTYICNVNHKPSNTKVDKKVEPKSCRKTHTCPPCPAPEAAGAPSVFLFPPKPKDTLMISRTPEVTCVVVDVSHEDPEVKFNWYVDGVEVHNAKTKPREEQYNSTYRVVSVLTVLHQDWLNGKEYKCKVSNKALPAPIEKTISKAKGQPREPQVYTLPPSREEMTKNQVSLTCLVKGFYPSDIAVEWESNGQPENNYKTTPPVLDSDGSFFLYSRLTVDKSRWQQGNVFSCSVMHEALHNHYTQKSLSLSPGK
light 2: DIQMTQSPSSLSASVGDRVTITCRASQSVSSSYLAWYQQKPGKAPKLLIYGTESRATGVPSRFSGSGSGTDFTLTISSLQPEDFATYYCQQYGGYPTFGGGTKVEIKRTVAAPSVFIFPPSDEQLKSGTASVVCLLNNFYPREAKVQWKVDNALQSGNSQESVTEQDSKDSTYSLSSTLTLSKADYEKHKVYACEVTHQGLSSPVTKSFNRGEC
notes: Human IgG1 EE/RR heterodimer with L234A, L235A, G237A (EU); also called GBT-IL27R-4894; GBT-IL-27R-4894
